In assay [1] the target is pyrene-labeled rabbit skeletal muscle F-actin (rabbit) (UniProt P68135). In words: stopped-flow fluorescence.
For assay [2] the target is unchanged. In words: other fluorescence titration.
Assay [3] addresses RLC-depleted porcine cardiac myosin (pig (endogenous in porcine ventricular muscle)) (UniProt P79293). As to the kind of experiment: reconstitution of RLC-depleted myosin, SDS-PAGE densitometry.
For assay [4] the target is unchanged. As to the kind of experiment: reconstitution of RLC-depleted skinned muscle strips, SDS-PAGE densitometry.

As for “porcine cardiac myosin reconstituted with human cardiac WT RLC (from UniProt P79293 1-1935; P10916 1-166) (complex)”, in assay [1], the kobs of actin-myosin dissociation at 10 μM MgATP came to 8.25 s⁻¹, the kobs of actin-myosin dissociation at 25 μM MgATP came out at 15.7 s⁻¹, the kobs of actin-myosin dissociation at 40 μM MgATP turned out to be 27.3 s⁻¹ and the kobs of actin-myosin dissociation at 80 μM MgATP came to 48.9 s⁻¹. In assay [1], the kobs of actin-myosin dissociation at 150 μM MgATP turned out to be 82.2 s⁻¹ and the kobs of actin-myosin dissociation at 250 μM MgATP came out at 107 s⁻¹. The equilibrium dissociation constant (Kd) (in general, the free concentration of one partner at which half of the binding sites on the other are occupied at equilibrium, for simple one-to-one binding) in assay [2] was found to be 2.13 nM.
As to “porcine cardiac myosin reconstituted with human cardiac R58Q RLC (from UniProt P79293 1-1935; P10916 1-166) (complex)”, in assay [1], the kobs of actin-myosin dissociation at 10 μM MgATP came to 7.26 s⁻¹, the kobs of actin-myosin dissociation at 25 μM MgATP turned out to be 15.1 s⁻¹, the kobs of actin-myosin dissociation at 40 μM MgATP amounted to 23.6 s⁻¹ and the kobs of actin-myosin dissociation at 80 μM MgATP is 45.6 s⁻¹. Further, in assay [1], the kobs of actin-myosin dissociation at 150 μM MgATP amounted to 69.2 s⁻¹ and the kobs of actin-myosin dissociation at 250 μM MgATP was 107 s⁻¹. In assay [2], this molecule registered a Kd of 13.3 nM.
In assay [1], “porcine cardiac myosin reconstituted with human cardiac S15D-R58Q RLC (from UniProt P79293 1-1935; P10916 1-166) (complex)” registered a kobs of actin-myosin dissociation at 10 μM MgATP of 7.29 s⁻¹, a kobs of actin-myosin dissociation at 25 μM MgATP of 14.7 s⁻¹, a kobs of actin-myosin dissociation at 40 μM MgATP of 25.3 s⁻¹ and a kobs of actin-myosin dissociation at 80 μM MgATP of 41.5 s⁻¹. In assay [1], the kobs of actin-myosin dissociation at 150 μM MgATP turned out to be 74 s⁻¹ and the kobs of actin-myosin dissociation at 250 μM MgATP turned out to be 111 s⁻¹. For the same molecule, the Kd in assay [2] came out at 3.53 nM.

B1: human ventricular (cardiac) myosin regulatory light chain, wild type (natural protein)
chain: MAPKKAKKRAGGANSNVFSMFEQTQIQEFKEAFTIMDQNRDGFIDKNDLRDTFAALGRVNVKNEEIDEMIKEAPGPINFTVFLTMFGEKLKGADPEETILNAFKVFDPEGKGVLKADYVREMLTTQAERFSKEEVDQMFAAFPPDVTGNLDYKNLVHIITHGEEKD
For the molecule B1, the % RLC Present worked out at 87.2% in assay [3] and 61.3% in assay [4].

B2: human ventricular myosin regulatory light chain S15D-R58Q phosphomimic double mutant (natural protein)
chain: MAPKKAKKRAGGANDNVFSMFEQTQIQEFKEAFTIMDQNRDGFIDKNDLRDTFAALGQVNVKNEEIDEMIKEAPGPINFTVFLTMFGEKLKGADPEETILNAFKVFDPEGKGVLKADYVREMLTTQAERFSKEEVDQMFAAFPPDVTGNLDYKNLVHIITHGEEKD
Regarding B2, the % RLC Present was found to be 86.9% in assay [3] and 64.5% in assay [4].

B3: human ventricular myosin regulatory light chain R58Q mutant (natural protein)
chain: MAPKKAKKRAGGANSNVFSMFEQTQIQEFKEAFTIMDQNRDGFIDKNDLRDTFAALGQVNVKNEEIDEMIKEAPGPINFTVFLTMFGEKLKGADPEETILNAFKVFDPEGKGVLKADYVREMLTTQAERFSKEEVDQMFAAFPPDVTGNLDYKNLVHIITHGEEKD
B3: the values for the % RLC Present in assay [3] and in assay [4] were 75.7% and 54%, respectively.
